Results on two molecules are retold here after patent publication US7507716B2, “Method for treating pain with prolactin antagonists” (Board of Regents, The University of Texas System, priority 2005, dated 2009).

Test [1] deals with capsaicin-evoked nocifensive behavior. The test can be described thus: Eye-wipe test (corneal capsaicin). The class given is in vivo, rat. The method, then:
To whether this effect has relevance to capsaicin-induced nociception in the whole animal, corneal wipe tests were performed. In this test, corneal application of capsaicin induces a brief nocifensive behavior in the trigeminal region of awake animals (Price et al., 2004; Neubert et al., 2005; Tender et al., 2005). The cornea is a specialized tissue innervated by trigeminal sensory neurons including TRPV1 positive C-fibers (Guo et al., 1999). Turning to FIG. 8A, the results of immunohistochemical analysis of corneal cryosections from proestrous females reveal the presence of fibers that stain positive for both PRL-R (green) and TRPV1 (red) (FIG. 8A).
In this test, the effect of PRL pretreatment on capsaicin-induced eye wiping in proestrous rats was examined. PRL (1 μg/ul in saline) or vehicle (40 μl) was applied in the cornea immediately followed by application of 0.01% capsaicin or vehicle (40 μl) and the total time spent grooming the injected eye per 5 min bins was measured by observers blinded to treatment allocation. Data are shown as mean±SEM (n=6/group *=p<0.05 and ***=p<0.001; two-way ANOVA). […] Data are shown as mean±SEM (n=6/group; two-way ANOVA). […] Data are shown as mean±SEM (n=6/group, **=p<0.01; two-way ANOVA). The effect of PRL on capsaicin-mediated nocifensive response was assessed next in male rats, in order to determine whether the influence of PRL-signaling on nociception is conserved between gender. Corneal wipe tests were performed on age-matched male rats essentially as described above. Data in FIG. 8E are shown as mean±SEM (n=6/group, **=p<0.01; two-way ANOVA). Unexpectedly, the capsaicin-mediated nocifensive response profile of male rats is strikingly similar to that of proestrus rats (compare FIG. 8E with FIG. 8B) and estradiol-treated OVX rats (compare FIG. 8E with FIG. 8D), and divergent from that found in control OVX rats treated with vehicle.
Eye-Wipe Test OVX female rats, treated with either vehicle or E2 (5μg/day/10 days), or intact female rats in the proestrous reproductive stage were brought to a quiet, temperature controlled (22-25° C.) behavioral laboratory in individual cages where they were allowed to acclimate for at least 2 h. PRL (1 μg/μl) or vehicle was placed directly onto the right eye in a volume of 40 ul followed by application of 0.01% (40 μl) capsaicin solution as described previously (Price et al. 2004). The resulting behavioral response was measured as time spent grooming or wiping the test eye. The observers were blinded to the treatments and the data were collected in 3 bins of 5 min.

Test [2] deals with TG neurons. The test is described as follows: Capsaicin-evoked iCGRP release from cultured TG neurons (RIA). The class given is cell-based, rat. Conditions: PRL 40 nM, capsaicin 50 nM. How it is done: Release of iCGRP from cultured neurons was measured by radioimmunoassay. Data are presented as mean % of vehicle±SEM (n=4/group, *=P<0.05 and **=P<0.01 vs. iCGRP levels of each control group; two-tailed unpaired T test).
Rat trigeminal ganglia (TG) primary cultures: The TG from ovariectomized or intact female rats were quickly removed after decapitation and neuronal cultures were prepared as previously described (Fehrenbacher et al., 2005; Patwardhan et al., 2005). The trypsin treatment was omitted in TG cultures prepared for electrophysiological recording and Ca^2+ imaging. Cells were plated on 24 well Poly-D-Lysine coated plates (for iCGRP experiments), 6 well Poly-D-Lysine plates (for PRL release experiments), Poly-D-Lysine/laminin-coated coverslips (for single cell studies) or 10 cm plates (for phosphorylation experiments), respectively. The TG cultures were maintained at 37° C. and 5% CO2. […] The media were replaced at the end of 24 h and then 48 h later.
CGRP release assay: All culture experiments were performed on day 5 at 37° C. using modified Hanks (Gibco) buffer (10.9 mM HEPES, 4.2 mM sodium bicarbonate, 10 mM dextrose and 0.1% bovine serum albumin were added to 1× Hanks). After two initial washes, a 15 min baseline sample was collected. […]

As to `C[C@]12CC[C@@H]3c4ccc(O)cc4CC[C@H]3[C@@H]1CC[C@@H]2O` [estradiol, 17-β-estradiol], in test [1] (OVX female rats treated with estradiol), the “PRL sensitization of capsaicin nocifensive behavior” value was “restores PRL sensitization of capsaicin nocifensive behavior”.

B1: PRL: Ovine PRL [oPRL-21, BIO] provided by NHPP; prolactin polypeptide hormone (protein, UniProt P01240 31-229, looked up)
Prolactin: TPVCPNGPGNCQVSLRDLFDRAVMVSHYIHNLSSEMFNEFDKRYAQGKGFITMALNSCHTSSLPTPEDKEQAQQTHHEVLMSLILGLLRSWNDPLYHLVTEVRGMKGVPDAILSRAIEIEEENKRLLEGMEMIFGQVIPGAKETEPYPVWSGLPSLQTKDEDARHSAFYNLLHCLRRDSSKIDTYLKLLNCRIIYNNNC
Consider B1, for which the “capsaicin-responsiveness (eye wiping)” value in test [1] (OVX female rats, PRL pretreatment) is recorded as “no change in capsaicin-responsiveness was observed”. Also, the capsaicin-mediated nocifensive response entry in test [1] (age-matched male rats, PRL pretreatment) was “influences nociceptor sensitization in male rats”. In addition, in test [1] (proestrous rats, PRL 1 μg/μl 40 μl on cornea, then 0.01% capsaicin), the “capsaicin-mediated nocifensive behavior (eye wiping)” value was “significantly increases capsaicin-mediated nocifensive behavior”. Moreover, the results for the “PRL sensitization of capsaicin-evoked iCGRP release” value in test [2] (OVX TG neurons cultured 5 days with 50 nM estradiol) and in test [2] (OVX TG neurons cultured in the absence of E2) were “significantly restored” and “no effect was observed”, respectively.
